The substances below were run on peptide library, one residue held at a place counted from the S/T acceptor (assay: relative phosphorylation of the sub-library (ratio to the mean residue at this position); human; higher = residue favoured). Details: M fixed; at -1.
How it was run: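 Relative sub-library phosphorylation is the ratio of each sub-library's signal to the mean residue at that position. The signal came from phosphorimaging of spots on streptavidin membranes, quantified by densitometry, after purified recombinant kinases reacted with biotinylated degenerate peptide sub-libraries in 384-well plates. Reactions held 50 μM peptide and 50 μM ATP spiked with γ-32P-ATP for 90 min under kinase-specific conditions.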

Sequence of MELK, construct: aa1-340 (Q14680 1-340, looked up): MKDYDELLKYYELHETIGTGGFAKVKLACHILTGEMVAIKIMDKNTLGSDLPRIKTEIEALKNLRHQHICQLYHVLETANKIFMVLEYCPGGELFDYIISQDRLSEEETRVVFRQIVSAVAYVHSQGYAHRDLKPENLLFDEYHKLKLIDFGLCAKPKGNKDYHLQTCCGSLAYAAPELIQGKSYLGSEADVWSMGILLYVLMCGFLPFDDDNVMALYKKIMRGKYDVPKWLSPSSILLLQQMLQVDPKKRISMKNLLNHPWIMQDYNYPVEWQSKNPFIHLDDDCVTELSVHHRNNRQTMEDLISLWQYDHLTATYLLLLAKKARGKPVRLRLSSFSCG
Sequence of GRK5, construct: Full length (P34947 whole entry, looked up): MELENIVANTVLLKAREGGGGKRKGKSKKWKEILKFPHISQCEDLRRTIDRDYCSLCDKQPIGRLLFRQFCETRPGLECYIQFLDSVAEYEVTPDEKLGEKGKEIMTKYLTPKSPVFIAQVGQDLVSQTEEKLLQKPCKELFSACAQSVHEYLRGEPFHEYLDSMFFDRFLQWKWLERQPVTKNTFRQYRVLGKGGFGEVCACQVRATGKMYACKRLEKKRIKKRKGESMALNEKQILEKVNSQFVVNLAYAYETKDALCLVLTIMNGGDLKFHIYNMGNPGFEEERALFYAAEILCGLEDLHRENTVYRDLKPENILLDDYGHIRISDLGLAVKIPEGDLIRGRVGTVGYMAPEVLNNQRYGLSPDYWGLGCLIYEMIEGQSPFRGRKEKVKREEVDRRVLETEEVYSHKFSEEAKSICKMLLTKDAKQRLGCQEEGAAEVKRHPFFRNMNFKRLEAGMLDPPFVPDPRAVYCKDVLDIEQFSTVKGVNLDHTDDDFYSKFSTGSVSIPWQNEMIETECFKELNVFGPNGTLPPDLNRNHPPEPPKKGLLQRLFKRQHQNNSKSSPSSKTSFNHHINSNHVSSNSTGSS
Sequence of RPS6KA6, construct: Full length (Q9UK32 whole entry, looked up): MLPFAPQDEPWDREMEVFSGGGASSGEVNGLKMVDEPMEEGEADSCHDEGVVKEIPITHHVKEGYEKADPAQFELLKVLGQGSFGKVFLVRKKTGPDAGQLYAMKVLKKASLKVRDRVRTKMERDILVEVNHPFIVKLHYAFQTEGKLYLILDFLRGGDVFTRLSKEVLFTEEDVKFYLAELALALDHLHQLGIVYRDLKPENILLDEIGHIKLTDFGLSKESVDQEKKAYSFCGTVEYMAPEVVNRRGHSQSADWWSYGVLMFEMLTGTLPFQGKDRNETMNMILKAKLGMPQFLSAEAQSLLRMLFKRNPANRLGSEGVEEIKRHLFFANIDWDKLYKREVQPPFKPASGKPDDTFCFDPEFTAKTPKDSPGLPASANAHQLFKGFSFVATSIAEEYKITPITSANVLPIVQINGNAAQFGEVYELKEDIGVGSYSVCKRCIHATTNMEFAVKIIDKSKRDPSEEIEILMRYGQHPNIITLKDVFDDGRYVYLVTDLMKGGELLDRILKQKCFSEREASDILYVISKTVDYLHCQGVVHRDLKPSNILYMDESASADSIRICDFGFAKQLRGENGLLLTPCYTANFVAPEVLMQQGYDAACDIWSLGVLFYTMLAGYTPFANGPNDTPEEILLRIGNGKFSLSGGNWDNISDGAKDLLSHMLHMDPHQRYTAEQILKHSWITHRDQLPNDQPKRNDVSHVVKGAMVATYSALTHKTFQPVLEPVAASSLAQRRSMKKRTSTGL
Sequence of PRPF4B, construct: aa519-end (Q13523 519-1007, looked up): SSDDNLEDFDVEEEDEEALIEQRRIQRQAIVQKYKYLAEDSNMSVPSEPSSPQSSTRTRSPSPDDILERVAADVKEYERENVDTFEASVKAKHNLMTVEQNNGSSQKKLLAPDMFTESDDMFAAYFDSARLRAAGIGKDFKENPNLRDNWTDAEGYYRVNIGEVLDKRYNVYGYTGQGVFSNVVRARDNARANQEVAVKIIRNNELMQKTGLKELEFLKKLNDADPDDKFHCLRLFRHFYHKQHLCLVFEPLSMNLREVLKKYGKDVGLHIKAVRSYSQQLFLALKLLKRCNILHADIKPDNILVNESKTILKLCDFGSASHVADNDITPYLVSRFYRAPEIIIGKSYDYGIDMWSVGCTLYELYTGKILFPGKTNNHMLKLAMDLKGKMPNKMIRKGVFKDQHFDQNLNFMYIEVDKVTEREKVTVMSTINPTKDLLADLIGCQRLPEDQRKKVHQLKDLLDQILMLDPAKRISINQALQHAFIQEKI
Sequence of TTK, construct: Full length (P33981 whole entry, looked up): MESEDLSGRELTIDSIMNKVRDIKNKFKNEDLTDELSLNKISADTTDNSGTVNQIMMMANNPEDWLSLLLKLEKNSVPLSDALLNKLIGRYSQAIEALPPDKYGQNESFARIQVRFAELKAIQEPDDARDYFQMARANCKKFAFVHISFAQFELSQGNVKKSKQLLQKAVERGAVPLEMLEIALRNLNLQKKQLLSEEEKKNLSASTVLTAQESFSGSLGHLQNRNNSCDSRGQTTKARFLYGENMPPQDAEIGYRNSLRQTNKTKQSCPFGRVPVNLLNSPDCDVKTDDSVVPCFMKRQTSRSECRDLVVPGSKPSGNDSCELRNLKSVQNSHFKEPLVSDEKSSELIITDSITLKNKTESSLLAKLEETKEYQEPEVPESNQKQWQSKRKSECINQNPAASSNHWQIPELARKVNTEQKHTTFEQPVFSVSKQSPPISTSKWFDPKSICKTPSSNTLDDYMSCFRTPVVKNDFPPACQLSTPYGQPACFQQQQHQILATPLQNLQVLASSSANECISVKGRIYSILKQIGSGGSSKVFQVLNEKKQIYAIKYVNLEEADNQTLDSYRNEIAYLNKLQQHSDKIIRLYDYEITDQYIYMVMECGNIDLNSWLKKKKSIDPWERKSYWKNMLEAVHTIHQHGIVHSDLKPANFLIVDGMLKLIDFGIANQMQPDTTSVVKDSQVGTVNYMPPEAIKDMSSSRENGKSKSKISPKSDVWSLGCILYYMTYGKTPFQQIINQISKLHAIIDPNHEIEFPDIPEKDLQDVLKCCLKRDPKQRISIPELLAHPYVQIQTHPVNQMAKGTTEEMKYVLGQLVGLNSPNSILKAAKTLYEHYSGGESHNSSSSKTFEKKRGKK
Sequence of CLK3, construct: Full length (P49761 whole entry, looked up): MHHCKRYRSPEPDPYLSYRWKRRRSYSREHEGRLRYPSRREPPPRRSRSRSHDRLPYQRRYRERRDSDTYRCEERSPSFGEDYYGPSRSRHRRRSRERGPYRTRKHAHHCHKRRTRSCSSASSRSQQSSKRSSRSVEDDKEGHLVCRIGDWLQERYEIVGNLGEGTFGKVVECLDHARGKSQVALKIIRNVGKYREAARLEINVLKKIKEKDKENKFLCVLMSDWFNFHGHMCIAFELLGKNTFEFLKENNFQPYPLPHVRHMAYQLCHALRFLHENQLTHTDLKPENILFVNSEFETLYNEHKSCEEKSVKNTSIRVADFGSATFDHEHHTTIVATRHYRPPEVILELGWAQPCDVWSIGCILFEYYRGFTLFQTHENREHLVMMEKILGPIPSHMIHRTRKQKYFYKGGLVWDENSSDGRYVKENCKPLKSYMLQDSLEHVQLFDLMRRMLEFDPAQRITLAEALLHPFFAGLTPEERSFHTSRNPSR
Sequence of MASTL, construct: Full length (Q96GX5 whole entry, looked up): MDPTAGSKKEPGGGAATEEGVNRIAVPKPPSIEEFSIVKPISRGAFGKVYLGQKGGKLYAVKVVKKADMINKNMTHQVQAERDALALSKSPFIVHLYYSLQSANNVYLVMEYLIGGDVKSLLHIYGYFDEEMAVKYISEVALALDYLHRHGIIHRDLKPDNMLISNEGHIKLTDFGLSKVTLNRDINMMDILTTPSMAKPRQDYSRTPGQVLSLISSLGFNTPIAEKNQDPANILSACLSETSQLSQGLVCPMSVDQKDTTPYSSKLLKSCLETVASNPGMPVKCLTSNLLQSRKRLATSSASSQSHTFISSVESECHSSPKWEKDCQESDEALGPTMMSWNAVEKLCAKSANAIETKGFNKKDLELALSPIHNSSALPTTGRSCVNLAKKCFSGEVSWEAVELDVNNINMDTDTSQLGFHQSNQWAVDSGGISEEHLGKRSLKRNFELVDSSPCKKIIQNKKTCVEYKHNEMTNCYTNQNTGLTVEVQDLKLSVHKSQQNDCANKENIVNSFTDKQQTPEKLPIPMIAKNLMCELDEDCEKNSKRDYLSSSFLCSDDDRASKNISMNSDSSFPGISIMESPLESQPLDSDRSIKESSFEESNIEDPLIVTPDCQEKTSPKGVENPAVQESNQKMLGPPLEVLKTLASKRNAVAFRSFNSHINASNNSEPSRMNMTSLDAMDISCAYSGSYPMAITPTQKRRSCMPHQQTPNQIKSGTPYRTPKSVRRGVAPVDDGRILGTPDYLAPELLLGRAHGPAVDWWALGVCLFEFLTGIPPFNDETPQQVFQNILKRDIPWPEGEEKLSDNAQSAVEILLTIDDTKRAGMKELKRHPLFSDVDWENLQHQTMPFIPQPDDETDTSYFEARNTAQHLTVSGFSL
Sequence of PAK3, construct: Full length (O75914 whole entry, looked up): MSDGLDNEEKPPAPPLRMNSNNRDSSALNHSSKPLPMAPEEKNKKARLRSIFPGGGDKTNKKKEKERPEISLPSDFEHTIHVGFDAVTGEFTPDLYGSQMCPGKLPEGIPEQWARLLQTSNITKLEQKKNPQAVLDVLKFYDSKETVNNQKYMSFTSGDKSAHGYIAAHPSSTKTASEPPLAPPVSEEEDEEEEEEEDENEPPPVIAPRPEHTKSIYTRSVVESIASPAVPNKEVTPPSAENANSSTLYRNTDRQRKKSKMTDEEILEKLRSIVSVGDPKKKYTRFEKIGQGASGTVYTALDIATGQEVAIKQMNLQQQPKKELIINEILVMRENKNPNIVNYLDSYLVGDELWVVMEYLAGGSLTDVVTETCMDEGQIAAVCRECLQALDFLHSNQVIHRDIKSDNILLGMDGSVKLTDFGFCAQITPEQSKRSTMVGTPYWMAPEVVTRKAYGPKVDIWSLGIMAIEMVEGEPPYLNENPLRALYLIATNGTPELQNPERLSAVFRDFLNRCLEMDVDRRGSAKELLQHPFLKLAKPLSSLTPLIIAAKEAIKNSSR

Substance	relative phosphorylation
RPS6KA6, construct: Full length (from UniProt Q9UK32)	0.863
GRK5, construct: Full length (from UniProt P34947)	0.829
TTK, construct: Full length (from UniProt P33981)	0.905
PRPF4B, construct: aa519-end (from UniProt Q13523)	1.27

Same assay, conditions: M fixed; at -2

Substance	relative phosphorylation
PAK3, construct: Full length (from UniProt O75914)	0.48
MASTL, construct: Full length (from UniProt Q96GX5)	0.846
MELK, construct: aa1-340 (from UniProt Q14680)	0.951
CLK3, construct: Full length (from UniProt P49761)	0.39
RPS6KA6, construct: Full length (from UniProt Q9UK32)	0.522
GRK5, construct: Full length (from UniProt P34947)	0.738
TTK, construct: Full length (from UniProt P33981)	0.453
PRPF4B, construct: aa519-end (from UniProt Q13523)	0.815

Same assay, conditions: M fixed; at -3

Substance	relative phosphorylation
PAK3, construct: Full length (from UniProt O75914)	0.693
MASTL, construct: Full length (from UniProt Q96GX5)	1
MELK, construct: aa1-340 (from UniProt Q14680)	0.484
CLK3, construct: Full length (from UniProt P49761)	0.359
RPS6KA6, construct: Full length (from UniProt Q9UK32)	0.314
GRK5, construct: Full length (from UniProt P34947)	0.792
TTK, construct: Full length (from UniProt P33981)	0.651
PRPF4B, construct: aa519-end (from UniProt Q13523)	0.43

Same assay, conditions: M fixed; at -4

Substance	relative phosphorylation
PAK3, construct: Full length (from UniProt O75914)	0.873
MASTL, construct: Full length (from UniProt Q96GX5)	0.938
MELK, construct: aa1-340 (from UniProt Q14680)	0.903
CLK3, construct: Full length (from UniProt P49761)	0.613
RPS6KA6, construct: Full length (from UniProt Q9UK32)	0.8
GRK5, construct: Full length (from UniProt P34947)	0.887
TTK, construct: Full length (from UniProt P33981)	0.865
PRPF4B, construct: aa519-end (from UniProt Q13523)	0.75

Same assay, conditions: M fixed; at -5

Substance	relative phosphorylation
PAK3, construct: Full length (from UniProt O75914)	0.681
MASTL, construct: Full length (from UniProt Q96GX5)	0.94
MELK, construct: aa1-340 (from UniProt Q14680)	1.22
CLK3, construct: Full length (from UniProt P49761)	0.492
RPS6KA6, construct: Full length (from UniProt Q9UK32)	0.545
GRK5, construct: Full length (from UniProt P34947)	0.817
TTK, construct: Full length (from UniProt P33981)	0.884
PRPF4B, construct: aa519-end (from UniProt Q13523)	0.842

Same assay, conditions: N fixed; at +1

Substance	relative phosphorylation
PAK3, construct: Full length (from UniProt O75914)	0.749
MASTL, construct: Full length (from UniProt Q96GX5)	0.789
MELK, construct: aa1-340 (from UniProt Q14680)	0.837
CLK3, construct: Full length (from UniProt P49761)	1.06
RPS6KA6, construct: Full length (from UniProt Q9UK32)	0.986
GRK5, construct: Full length (from UniProt P34947)	0.888
TTK, construct: Full length (from UniProt P33981)	0.685
PRPF4B, construct: aa519-end (from UniProt Q13523)	0.665

Same assay, conditions: N fixed; at +2

Substance	relative phosphorylation
PAK3, construct: Full length (from UniProt O75914)	0.728
MASTL, construct: Full length (from UniProt Q96GX5)	0.95
MELK, construct: aa1-340 (from UniProt Q14680)	0.873
CLK3, construct: Full length (from UniProt P49761)	1.03
RPS6KA6, construct: Full length (from UniProt Q9UK32)	1.13
GRK5, construct: Full length (from UniProt P34947)	0.905
TTK, construct: Full length (from UniProt P33981)	1.29
PRPF4B, construct: aa519-end (from UniProt Q13523)	0.968

Same assay, conditions: N fixed; at +3

Substance	relative phosphorylation
PAK3, construct: Full length (from UniProt O75914)	0.847
MASTL, construct: Full length (from UniProt Q96GX5)	0.749
MELK, construct: aa1-340 (from UniProt Q14680)	1.48
CLK3, construct: Full length (from UniProt P49761)	1.1
RPS6KA6, construct: Full length (from UniProt Q9UK32)	1.1
GRK5, construct: Full length (from UniProt P34947)	0.721
TTK, construct: Full length (from UniProt P33981)	0.723
PRPF4B, construct: aa519-end (from UniProt Q13523)	1.05

Same assay, conditions: N fixed; at +4

Substance	relative phosphorylation
PAK3, construct: Full length (from UniProt O75914)	1.03
MASTL, construct: Full length (from UniProt Q96GX5)	1.05
MELK, construct: aa1-340 (from UniProt Q14680)	0.988
CLK3, construct: Full length (from UniProt P49761)	0.885
RPS6KA6, construct: Full length (from UniProt Q9UK32)	1.04
GRK5, construct: Full length (from UniProt P34947)	0.911
TTK, construct: Full length (from UniProt P33981)	1.28
PRPF4B, construct: aa519-end (from UniProt Q13523)	0.83

Same assay, conditions: N fixed; at -1

Substance	relative phosphorylation
PAK3, construct: Full length (from UniProt O75914)	1.04
MASTL, construct: Full length (from UniProt Q96GX5)	1.06
MELK, construct: aa1-340 (from UniProt Q14680)	1.19
CLK3, construct: Full length (from UniProt P49761)	1.55
RPS6KA6, construct: Full length (from UniProt Q9UK32)	1.49
GRK5, construct: Full length (from UniProt P34947)	1.19
TTK, construct: Full length (from UniProt P33981)	1.47
PRPF4B, construct: aa519-end (from UniProt Q13523)	0.826

Same assay, conditions: N fixed; at -2

Substance	relative phosphorylation
PAK3, construct: Full length (from UniProt O75914)	0.584
MASTL, construct: Full length (from UniProt Q96GX5)	1.16
MELK, construct: aa1-340 (from UniProt Q14680)	1.09
CLK3, construct: Full length (from UniProt P49761)	0.853
RPS6KA6, construct: Full length (from UniProt Q9UK32)	0.675
GRK5, construct: Full length (from UniProt P34947)	0.889
TTK, construct: Full length (from UniProt P33981)	1.82
PRPF4B, construct: aa519-end (from UniProt Q13523)	0.745

Same assay, conditions: N fixed; at -3

Substance	relative phosphorylation
PAK3, construct: Full length (from UniProt O75914)	0.825

Source: the supplement of paper PMC9876800
